Data on 5 molecules can be found in patent US20240287457A1, “COMPOSITIONS AND CELL CULTURE MEDIA FOR INCREASING NEUTROPHIL LIFESPAN” (THE CHILDREN'S MEDICAL CENTER CORPORATION, priority 2021, published 2024).

In one data set the test system is neutrophils. The following applies: 20 hours at 37° C. in anoxic culture medium with 3 mM glucose and 32 mg/mL DMOG; from about 1 day; cited from earlier work.
The test system of data set [1] is murine neutrophils. The experiment in a line: In vitro neutrophil death / survival of cultured murine neutrophils. To be noted: for healthy neutrophils remaining: mouse, G-CSF alone. In kind it is cell-based, mouse.
A further data set has as its system caspases. The following applies: pan-caspase inhibitor; cited from earlier work.
Data set [2] relates to neutrophils purified from wild-type (WT) mice. The experiment in a line: fMLP-induced neutrophil polarization (ruffling). Format: cell-based, mouse. The following applies: fMLP 1 μM, FIG. 10. The method, then: FIG. 10A is a series of images showing chemoattractant-induced neutrophil ruffling. Neutrophils (2×10^5) purified from wild-type (WT) mice were plated on LABTEK chamber slides and cultured in RPMI-1640 in the presence or absence of Rac1 inhibitor for 60 minutes. Cells were then uniformly stimulated with N-formyl-met-leu-phe (fMLP, 1 μM). Images were taken 5 minutes after the fMLP stimulation (400×). FIG. 10B is a bar graph showing the percentage of cells that ruffled or extended pseudopods, calculated from images captured 5 minutes after stimulus was added. At least 200 cells were assessed for each sample in each experiment. Data are represented as mean±SD of three experiments. **p<0.001 versus untreated neutrophils.

The subject of another data set is cells. The following applies: even at extremely high concentrations; cited from earlier work.
The next data set concerns E. coli. The experiment in a line: Neutropenia-related E. coli-induced pneumonia model (GTX). Format: in vivo, mouse.
For data set [3], the system named is murine neutrophils. The experiment in a line: In vitro phagocytosis assay, murine neutrophils. The following applies: after one day of culture. In kind it is cell-based, mouse. The method, then: In vitro phagocytosis assay: […] pHrodo Red E. coli BioParticles or Zymosan A S. cerevisiae BioParticles (INVITROGEN) were reconstituted in phosphate-buffered saline (PBS) and opsonized with 10% serum at 37° C. for 30 minutes. Neutrophils were incubated with serum-opsonized bioparticles at a ratio of 1:10 (neutrophils:bioparticles) at 37° C. for 0.5 hours. APC-Ly6G (BIOLEGEND, 1A8, 0.2 μg/mL) or APC-CD16 (BIOLEGEND, 51.1, 0.2 μg/mL) antibody was added to the sample to label mouse or human neutrophil membranes. The labeling was achieved by incubating the samples at room temperature for 3 minutes. The number of internalized particles was counted under a spinning disk confocal microscope ([…] VOX). Phagocytosis efficiency was expressed as the percentage of neutrophils that engulfed at least one bioparticle. Phagocytosis index was expressed as the average number of internalized particles per cell. At least 200 cells were counted from random fields per coverslip for each group.

Data set [4] deals with transfused neutrophils. The data set is described as follows: In vivo recruitment of transfused neutrophils in a mouse peritonitis model. The following applies: 1-day-old neutrophils. The method, then:
In vivo recruitment of transfused neutrophils in a mouse peritonitis model: Freshly isolated CD45.1^+ or CLON-G-treated (1 day) GFP^+ bone marrow neutrophils were mixed (1:1, a total of 5×10^6/mouse) and injected intravenously into neutropenic recipient mice challenged with TG for 1 hour. At the indicated time points after cell injection, peritoneal cells were harvested by peritoneal cavity lavage with 5 mL of ice-cold PBS/15 mM EDTA, flushed back and forth three times. The relative amount of transfused freshly isolated CD45.1^+ and CLON-G-treated (1 day) GFP^+ neutrophils were analyzed by flow cytometry using a BD FACSCANTO II flow cytometer as described above.

For data set [5], the system named is transfused neutrophils. The experiment in a line: In vivo recruitment of transfused neutrophils in bacterial pneumonia. On the set-up: species or system mouse. The following applies: lungs. The method, then:
In vivo recruitment of transfused neutrophils in bacterial pneumonia: Freshly isolated or CLON-G-treated bone marrow neutrophils were labeled with carboxyfluorescein diacetate succinimidyl ester (CFSE, 5 μM) or seminaphthorhodafluor-1 acetate (SNARF-1, 5 μM) at 37° C. for 10 minutes; labeled cells were mixed (1:1, a total of 5×10^6/mouse) and transfused via the tail vein into the same neutropenic recipient mice challenged with 5×10^3 cfu E. coli for 4 hours. Whole lungs were homogenized 3 hours after neutrophil transfusion. The number of adoptively transferred neutrophils recruited to the lungs was analyzed using a FACSCANTO II flow cytometer and […] software. Relative recruitments of CLON-G-treated and freshly isolated neutrophils were calculated as the ratio of the indicated populations.

The next data set has as its system human neutrophils. The experiment in a line: In vitro neutrophil death / survival of cultured human neutrophils. The following applies: G-CSF alone.
In data set [6] the test system is neutrophils in the granulocyte apheresis concentrates. The data set is described as follows: Survival and function of neutrophils from human granulocyte apheresis concentrates. Format: cell-based. The following applies: cultured for only 1 day, FIG. 6K. The method, then:
Accordingly, the donors were stimulated in the evening and granulocyte collection was carried out the next morning. Neutrophil harvesting was accomplished through the process of apheresis in which red blood cells (RBCs) and plasma were returned to the donor. To collect enough cells for GTX, standard continuous flow apheresis was performed for 1 to 1.5 hours to process 3.5 to 5 liters of blood. Citrate was used as the anticoagulant during collection and calcium gluconate was added to the return line to counteract the citrate-induced hypocalcemic symptoms in the donor. […] The purity was >97% as determined by both Wright-Giemsa staining and flow cytometry analysis with CD15 and CD16 antibodies. […] No contamination of hematopoietic progenitor cells (HPCs) was detected. […] The total initial cell number was counted using a hemocytometer before culture or treatment. At each indicated time point, the total cell number was counted again. […] Apoptotic cells were detected by Annexin V-fluorescein isothiocyanate (FITC) and propidium iodide (PI) staining using an Annexin V Detection Kit (BD BIOSCIENCES) following the manufacturer's protocol. Flow cytometry was performed using a FACSCANTO II flow cytometer and analyzed using […] software (BD BIOSCIENCES). […] Chemotaxis velocity and directionality were analyzed; see e.g., Jia et al. 2007, supra. […]

In data set [7] the test system is transfused human neutrophils. The experiment in a line: Survival and function of transfused human neutrophils in vivo in NSG mice.

For `COC(=O)CNC(=O)C(=O)OC` [DMOG, dimethyloxalylglycine], the “neutrophil half-life in vitro” value with neutrophils was 48 h.
In the case of `C[C@H](NC(=O)C(=O)Nc1ccccc1C(C)(C)C)C(=O)N[C@@H](CC(=O)O)C(=O)COc1c(F)c(F)cc(F)c1F` [Emricasan, N-[2-(1,1-dimethylethyl)phenyl]-2-oxoglycyl-N-[(1S)-1-(carboxymethyl)-2-oxo-3-(2,3,5,6-tetrafluorophenoxy)propyl]-L-Alaninamide, reference compound], in the data set with murine neutrophils [1] (in combination with NAC, Hsp70, DFO, G-CSF, and optionally a RIPK1 inhibitor, FIG. 23, murine bone marrow neutrophils), the “lifespan of cultured neutrophils” value is recorded as “prolonged the lifespan”. Further, the activity in vitro result with caspases was “sub- to nanomolar”.
For `CCN(CC)CCCC(C)Nc1nc(C)cc(Nc2ccc3nc(C)cc(N)c3c2)n1` (centres unmarked) [NSC23766], the fMLP-induced neutrophil polarization entry in [2] is listed as “effectively inhibited”.
`CC(C)C(NC(=O)c1ccc2ccccc2n1)C(=O)NC(CC(=O)O)C(=O)COc1c(F)cccc1F` (stereo not drawn) [Q-VD-Oph, Quinoline-Val-Asp-Difluorophenoxymethylketone]: the toxicity to cells result in the data set on cells was “not toxic”.

B1: G-CSF: granulocyte colony-stimulating factor (AMGEN, NEUPOGEN), PI3K/Akt pathway stimulator (protein, listed as Homo sapiens)
chain: MTPLGPASSLPQSFLLKCLEQVRKIQGDGAALQEKLCATYKLCHPEELVLLGHSLGIPWAPLSSCPSQALQLAGCLSQLHSGLFLYQGLLQALEGISPELGPTLDTLQLDVADFATTIWQQMEELGMAPALQPTQGAMPAFASAFQRRAGGVLVASHLQSFLEVSYRVLRHLAQP
For B1, the “inflammatory cytokine concentrations (TNF-α, IL-6)” value in the data set with E. coli (inflamed lungs, ELISA) is “unable to reduce inflammatory cytokine concentrations”. For the same molecule, the edema formation result in the data set with E. coli (lung, transfusion of treated neutrophils) was “failed to produce the same protective effect”. Further, the “bacteria-killing capacity in neutropenic recipient mice” value with E. coli (transfusion of treated neutrophils, 5×10^3 cfu E. coli) is given as “ineffective”. The BALF protein concentrations entry in the data set on E. coli (transfusion of treated neutrophils, compared with fresh neutrophils) was “remained high”. Besides, in the data set on murine neutrophils [3], the phagocytosis efficiency result is recorded as “lower”. The “recruitment efficiency compared to fresh neutrophils” value with transfused neutrophils [4] and in the data set on transfused neutrophils [5] was “reduced recruitment efficiency” each time. Moreover, the healthy neutrophils remaining in the data set with murine neutrophils [1] (after 1 day of treatment) is on record as around 40%; with murine neutrophils [1] (after 3 days of treatment) it was around 15%; with human neutrophils (after 1 day of treatment), “about 55%”; in the data set with human neutrophils (after 3 days of treatment), around 15%. Further, the “reduction in relative bacterial killing capability” value in data set [6] is “more than 50%”. Further, the “recruitment of transfused human neutrophils to the inflamed peritoneal cavity” value in data set [7] (1 and 2 hours post transfusion) is “lower”. In data set [7] (injected into inflamed peritoneal cavity, each time point), the “human neutrophils left in the peritoneal cavity / cell death” value was “faster rates of cell death”. Besides, the “phagocytosis efficiency lower than that of fresh human neutrophils” value in data set [7] (pHrodo-E. coli) is listed as “about 50%”.
